T1: human insulin-like growth factor binding protein 4 (IBP4) (human, UniProt P22692 22-258)
T1 construct: also called IBP4 protein; IGFBP4
T1 sequence: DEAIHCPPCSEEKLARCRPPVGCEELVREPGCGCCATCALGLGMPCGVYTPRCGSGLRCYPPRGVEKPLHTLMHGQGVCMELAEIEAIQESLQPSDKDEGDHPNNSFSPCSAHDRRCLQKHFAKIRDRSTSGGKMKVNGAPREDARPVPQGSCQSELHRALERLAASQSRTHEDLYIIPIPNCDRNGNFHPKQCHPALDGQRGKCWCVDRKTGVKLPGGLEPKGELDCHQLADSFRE


Columns and labels:
[1] = target: T2, anti-SHBG antibody clone variant 4G10.F8; test: ECLIA, single peptide competes with SHBG for the antibody
T2 construct: Mouse monoclonal; variant form expressed from a standard backbone in CHO cells; also called SHBG (4G10.F8) Anti SHBG v1; SHBG #6

[2] = target: T3, anti-SHBG antibody clone variant 13C9.E5; test: as above
T3 construct: Mouse monoclonal; variant form; also called SHBG (13C9.E5) Anti SHBG v2; SHBG #16

[3] = target: C4 Pos Control #4; test: as above
[4] = target: T1, human insulin-like growth factor …; test: AC-MS, mAb on M-PVA beads, QC2 serum, round 2 (beads reused)
[5] = target: T1, human insulin-like growth factor …; test: AC-MS, 10 ul QC2 serum, M-PVA beads at reduced mAb coupling density
From the text: (§1) AC-MS performance at reduced IBP4 antibody coupling density. IBP4 antibodies were coupled to M-PVA beads at concentrations of […] in the coupling reaction to test the performance of M-PVA beads with reduced density of coupled antibody. Comparison of the IBP4 response ratios obtained in AC-MS experiments with M-PVA beads with a low density of coupled mAb should reveal differences in the apparent affinity of the antibodies to IBP4 protein.
(§2) M-PVA beads coupled to IBP4 mAbs 1H9.B6, 5C11.A7, 7G11.H4 or 5B3.G9 at each concentration were used in AC-MS experiments with 10 μl of QC2 serum.

[6] = target: T1, human insulin-like growth factor …; test: AC-MS, 10 ul QC2 serum, M-PVA beads coupled at 100 ug/ml mAb
From the text: as §1, §2

[7] = target: T1, human insulin-like growth factor …; test: AC-MS, 10 ul QC2 serum, M-PVA beads coupled at 25 ug/ml mAb
From the text: as §1, §2

[8] = target: T1, human insulin-like growth factor …; test: AC-MS, mAb on M-PVA beads, QC2 serum, round 3 (beads reused)
[9] = target: T1, human insulin-like growth factor …; test: SPR, format and IBP4 form not stated
[10] = target: T1, human insulin-like growth factor …; test: AC-MS, mAb on M-PVA beads, pooled pregnant serum
From the text: (§3) Anti-IBP4 antibody evaluation and selection. A total of 8 hybridoma clones (1H9.B6, 5C11.A7, 7G11.H4, 3D4.E9, 1G3.A3, 8G4.G11, 5F10.B2, and 3D8.A11) were produced according to the “additional production of anti-IBP4 antibodies” methods disclosed in Example 1 and screened by AC-MS, shown in Table 10 below. Monoclonal antibodies from these clones purified by protein-G affinity chromatography were covalently coupled to M-PVA magnetic beads and used in AC-MS experiments using pooled pregnant serum. The 5B3.G9 anti-IBP4 antibody clone was included in this analysis for comparison to the performance of the additional IBP4 antibodies, as shown and italicized in Table 10 below. Table 10 includes a summary of the additional antibodies Response Ratios and shared epitope binding results as determined by the competitive binding assays of Example 3.

[11] = target: T1, human insulin-like growth factor …; test: AC-MS, mAb on M-PVA beads, QC2 serum, round 1
[12] = target: T1, human insulin-like growth factor …; test: AC-MS, mAb on M-PVA beads, pooled pregnant serum, peptide …
From the text: as §3

[13] = target: T1, human insulin-like growth factor …; test: AC-MS, 10 ul QC2 serum, M-PVA beads coupled at 400 ug/ml mAb
From the text: as §1, §2

T2 sequence (heavy, as listed by the source, chain 1 of 2): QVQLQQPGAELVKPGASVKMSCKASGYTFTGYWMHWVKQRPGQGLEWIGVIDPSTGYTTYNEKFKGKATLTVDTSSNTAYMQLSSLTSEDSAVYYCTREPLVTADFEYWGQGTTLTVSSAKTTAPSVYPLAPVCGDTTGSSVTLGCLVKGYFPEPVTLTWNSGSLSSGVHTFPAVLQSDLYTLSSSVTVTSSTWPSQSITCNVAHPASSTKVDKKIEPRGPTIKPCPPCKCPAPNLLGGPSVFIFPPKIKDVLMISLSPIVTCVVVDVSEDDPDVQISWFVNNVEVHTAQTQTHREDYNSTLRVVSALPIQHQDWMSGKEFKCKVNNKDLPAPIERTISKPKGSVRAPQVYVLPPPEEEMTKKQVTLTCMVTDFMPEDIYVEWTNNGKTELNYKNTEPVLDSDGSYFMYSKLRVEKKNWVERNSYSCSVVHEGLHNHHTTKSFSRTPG
T2 sequence (light, as listed by the source, chain 2 of 2): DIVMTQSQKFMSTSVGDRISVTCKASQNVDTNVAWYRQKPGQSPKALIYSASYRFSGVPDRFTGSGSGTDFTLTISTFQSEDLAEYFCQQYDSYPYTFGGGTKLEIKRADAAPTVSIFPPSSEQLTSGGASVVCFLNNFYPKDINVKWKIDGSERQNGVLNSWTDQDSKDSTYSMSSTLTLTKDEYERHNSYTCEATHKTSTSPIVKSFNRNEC
T3 sequence (VH, as listed by the source): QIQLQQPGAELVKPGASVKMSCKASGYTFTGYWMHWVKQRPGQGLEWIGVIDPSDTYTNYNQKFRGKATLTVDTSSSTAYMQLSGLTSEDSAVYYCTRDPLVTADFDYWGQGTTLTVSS

Row | Binder | ave RR [4] | percentage of the IBP4 RR at 25 relative to 400 coupling density [5] | ave RR [6] | ave RR [7] | ave RR [8] | Kd [9] | koff [9] | kon [9] | t1/2 [9] | ave IBP4 AC-MS RR [10] | ave RR [11] | Response Ratio [12] | ave RR [13] | also measured
1 | LRPVLPTQSAHDPP (SHBG peptide of pool 1+2+3; also called peptide 1; Individual Peptide 1) [1] | – | – | – | – | – | – | – | – | – | – | – | – | – | % Unblocked Signal at 0.07 uMolar [1]: 95.8%; % Unblocked Signal at 0.27 uMolar [1]: 83%; % Unblocked Signal at 1.08 uMolar [1]: 53.2%; % Unblocked Signal at 0.07 uMolar [2]: 93.4%; % Unblocked Signal at 0.27 uMolar [2]: 89.6%; % Unblocked Signal at 1.08 uMolar [2]: 86.8%; % Unblocked Signal at 0.07 uMolar [3]: 93.3%; % Unblocked Signal at 0.27 uMolar [3]: 77.1%; % Unblocked Signal at 1.08 uMolar [3]: 66.3%
2 | anti-IBP4 antibody 5B3.G9 (antibody, mouse IgG1, kappa) heavy: EVQLQQSGPELVKPGASAKISCKASGYTFTDYYMNWVKQSHGKSLEWIGDINPNNGGSAYNQKFKGKATLTVDKSSSTAYMELRSLTSEDSAVYYCARWDGGFDYWGQGTTLTVSSAKTTPPSVYPLAPGSAAQTNSMVTLGCLVKGYFPEPVTVTWNSGSLSSGVHTFPAVLQSDLYTLSSSVTVPSSTWPSQTVTCNVAHPASSTKVDKKIVPRDCGCKPCICTVPEVSSVFIFPPKPKDVLTITLTPKVTCVVVDISKDDPEVQFSWFVDDVEVHTAQTKPREEQINSTFRSVSELPIMHQDWLNGKEFKCRVNSAAFPAPIEKTISKTKGRPKAPQVYTIPPPKEQMAKDKVSLTCMITNFFPEDITVEWQWNGQPAENYKNTQPIMDTDGSYFVYSKLNVQKSNWEAGNTFTCSVLHEGLHNHHTEKSLSHSPGK light: DIVMTQSQKFMSTSVRDRVSVTCKASQNVGTNVAWYQQKPGQSPKALIYSASYRYSGVPDRFTGSGSGTAFTLTISNVQSEDLAEYFCQQYNIYPLTFGAGTKLELKRADAAPTVSIFPPSSEQLTSGGASVVCFLNNFYPRDINVKWKIDGSERQNGVLNSWTDQDSKDSTYSMSSTLTLTKDEYERHNSYTCEATHKTSTSPIVKSFNRNECK | 0.534 | 49% | 0.449 | 0.231 | 0.462 | 10 nM | 0.0021 s⁻¹ | 200000 M⁻¹ s⁻¹ | 5.5 min | 0.482 | 0.533 | 0.482 | 0.47 | –
3 | anti-IBP4 antibody 1H9.B6 (antibody, mouse IgG1, kappa, V domains shown, Mouse hybridoma mAb raised against FL IBP4; also called IBP4-1H9.B6) VH: EVQLQQSGPELVKPGASVKISCKTSGYTFTDYYMNWVKQSHGKSLEWIGDINPNNGGAGYNQKFKGKATLTVDKSSSTAYMELRSLTSEDSAVYYCARWGWDRYFDYWGQGTTLTVSS VL: DIVMTQSQKFMSTSVGDRVSVTCKASQNVGIDVAWYQQKPGQSPKALIYSASYRSSGVPDRFTGSGSGTDFTLTINNVQSEDLAEYFCQQYNSYPLAFGSGTKLEIKR | 0.607 | 82% | 0.562 | 0.479 | 0.62 | 1.5 nM | 0.0009 s⁻¹ | 600000 M⁻¹ s⁻¹ | 12.8 min | 0.588 | 0.602 | 0.588 | 0.586 | –
4 | anti-IBP4 antibody 5C11.A7 (antibody, mouse IgG1, kappa, V domains shown, Mouse hybridoma mAb raised against FL IBP4; also called IBP4-5C11.A7) VH: QVQLQQSGAELVRPGASVTLSCKASGYTFTDYEMHWVRQTPVHGLEWIGAIDTETGGPAYNQKFKGKAILTADKSSSTAYMELRSLTSEDSAVYFCTRARGSRSVYYFDNWGQGTTLTVSS VL: DIVMTQSQKFMSTSVGDRVSVTCKASQNVGTNVAWYQQKPGHSPKVLIYSASYRHSGVPDRFTGSGSGTDFTLTIGNVQSEDLADYFCQQYDTYPLTFGSGTKLEIKR | 0.609 | 79% | 0.567 | 0.47 | 0.619 | 1.6 nM | 0.00074 s⁻¹ | 450000 M⁻¹ s⁻¹ | 15.6 min | 0.548 | 0.651 | 0.548 | 0.595 | –
5 | anti-IBP4 antibody 7G11.H4 (antibody, mouse IgG1, kappa, V domains shown, Mouse hybridoma mAb raised against FL IBP4; also called IBP4-7G11.H4) VH: QVQLQQSGAELVRPGASVTLSCKASGYTFTDYEMHWVRQTPVHGLEWIGAIDTETGGPAYNQKFKGKAILTADKSSSTAYMELRSLTSEDSAVYFCTRARGSRSVYYFDNWGQGTTLTVSS VL: DIVMTQSQKFMSTSVGDRVSVTCKASQNVDTNIAWYQQKPGHSPKALIYSASYRYSGVPDRFTGSGSGTDFTLTIGNVQSEDLADYFCQQYDTYPLTFGSGTKLEIKR | 0.56 | 75% | 0.492 | 0.404 | 0.547 | 2.8 nM | 0.00102 s⁻¹ | 370000 M⁻¹ s⁻¹ | 11.3 min | 0.525 | 0.598 | 0.525 | 0.538 | –

Reference: patent US20250101096A1 (SERA PROGNOSTICS, published 2025)
